Experimental findings from patent US20140314775A1 (ADRENOMED, published 2014) are described below.

Usually Kd stands for the constant that tells how readily two partners part at equilibrium.

The target in assay [1] is T1, human Adrenomedullin (hADM 1-52) (human, not fully specified; C-terminal amide (printed as PRSKISPQGY-NH2 for aa 43-52 of ADM, SEQ ID NO: 25; not restated for the peptide used in the assays)).
T1 peptide: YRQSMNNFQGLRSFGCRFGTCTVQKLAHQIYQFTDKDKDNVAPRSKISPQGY
In words: cell-based or functional assay.

Assay [2] addresses T1, human Adrenomedullin (hADM 1-52). As to the kind of experiment: SPR, Biacore 2000; antibody captured via anti-mouse Fc on CM5, Adrenomedullin as analyte. On the procedure:
Reversible immobilization of the antibodies was performed using an anti-mouse Fc antibody covalently coupled in high density to a CM5 sensor surface according to the manufacturer's instructions (mouse antibody capture kit; GE Healthcare).

B1: NT-H (antibody, V domains shown)
VH: QVQLQQSGAELMKPGASVKISCKATGYTFSRYWIEWVKQRPGHGLEWIGEILPGSGSTNYNEKFKGKATITADTSSNTAYMQLSSLTSEDSAVYYCTEGYEYDGFDYWGQGTTLTVSS
VL: DVLLSQTPLSLPVSLGDQATISCRSSQSIVYSNGNTYLEWYLQKPGQSPKLLIYRVSNRFSGVPDRFSGSGSGTDFTLKISRVEAEDLGVYYCFQGSHIPYTFGGGTKLEIK
notes: also called antibody NT-H; NT-H antibody
With B1, the “IC50 (read off the curve; half of the partial plateau), in the presence of 5.63 nM hADM” value in assay [1] is about 2 µg/mL. Further, the affinity in assay [2], expressed as Kd, was 5.9 nM.
